{
  "source": "paper PMC10632352",
  "about": "“Nde1 promotes Lis1-mediated activation of dynein” (Nature Communications, 2023)",
  "molecules": {"B1": {"name": "Nde1^1–190 (N-terminus of human Nde1) (domain or fragment, UniProt Q9NXR1 1-190, looked up)", "chain": "MEDSGKTFSSEEEEANYWKDLAMTYKQRAENTQEELREFQEGSREYEAELETQLQQIETRNRDLLSENNRLRMELETIKEKFEVQHSEGYRQISALEDDLAQTKAIKDQLQKYIRELEQANDDLERAKRATIMSLEDFEQRLNQAIERNAFLESELDEKENLLESVQRLKDEARDLRQELAVQQKQEKPR", "modifications": "LD555 dye in the analytical SEC", "notes": "Nde1, human, N-terminal coiled-coil, residues 1-190 (C-terminus truncated); also called Nde1^1–190-LD555; source: Sf9 (baculovirus, pOmniBac), purified (IgG Sepharose, TEV elution, Superdex 200 Increase SEC)"}, "B2": {"name": "human Lis1 (natural protein, UniProt P43034 1-410, looked up)", "chain": "MVLSQRQRDELNRAIADYLRSNGYEEAYSVFKKEAELDVNEELDKKYAGLLEKKWTSVIRLQKKVMELESKLNEAKEEFTSGGPLGQKRDPKEWIPRPPEKYALSGHRSPVTRVIFHPVFSVMVSASEDATIKVWDYETGDFERTLKGHTDSVQDISFDHSGKLLASCSADMTIKLWDFQGFECIRTMHGHDHNVSSVAIMPNGDHIVSASRDKTIKMWEVQTGYCVKTFTGHREWVRMVRPNQDGTLIASCSNDQTVRVWVVATKECKAELREHEHVVECISWAPESSYSSISEATGSETKKSGKPGPFLLSGSRDKTIKMWDVSTGMCLMTLVGHDNWVRGVLFHSGGKFILSCADDKTLRVWDYKNKRCMKTLNAHEHFVTSLDFHKTAPYVVTGSVDQTVKVWECR", "modifications": "benzylguanine dyes on the SNAP tag, by experiment: LD555, LD655, or Alexa488 and biotin", "notes": "Lis1 (noncatalytic beta subunit of PAF-AH1B), human; Homodimer by mass photometry; also called full-length Lis1; SNAP-Lis1; source: Sf9 (baculovirus, pOmniBac), purified (IgG Sepharose, TEV elution, Superdex 200 Increase SEC)"}, "B3": {"name": "mtLis1 (dynein-binding mutant of Lis1, R316A and W340A) (natural protein, human, UniProt P43034 1-410, looked up)", "chain": "B2 chain with R316A, W340A", "modifications": "LD555, or Alexa488 and biotin, on the SNAP tag in the colocalization assays", "notes": "Lis1, human, with R316A and W340A on the beta-propeller domain; forms a dimer like Lis1; source: Sf9 (baculovirus, pOmniBac), purified (IgG Sepharose, TEV elution, SEC)"}, "B4": {"name": "Nde1^E118A/R129A (Lis1 binding mutant of Nde1), Q9NXR1 1-335 (natural protein)", "chain": "MEDSGKTFSSEEEEANYWKDLAMTYKQRAENTQEELREFQEGSREYEAELETQLQQIETRNRDLLSENNRLRMELETIKEKFEVQHSEGYRQISALEDDLAQTKAIKDQLQKYIRELAQANDDLERAKAATIMSLEDFEQRLNQAIERNAFLESELDEKENLLESVQRLKDEARDLRQELAVQQKQEKPRTPMPSSVEAERTDTAVQATGSVPSTPIAHRGPSSSLNTPGSFRRGLDDSTGGTPLTPAARISALNIVGDLLRKVGALESKLASCRNLVYDQSPNRTGGPASGRSSKNRDGGERRPSSTSVPLGDKGLDTSCRWLSKSTTRSSSSC", "modifications": "here or on the partner: a fluorescent dye in the colocalization assays; LD655, or Alexa488 and biotin, where labelled"}, "B5": {"name": "Nde1^E118K/R129E (Lis1 binding mutant of Nde1), Q9NXR1 1-335 (natural protein)", "chain": "B4 chain with A118K, A129E", "modifications": "here or on the partner: a fluorescent dye in the colocalization assays; LD655, or Alexa488 and biotin, where labelled"}, "B6": {"name": "human Nde1 (natural protein, UniProt Q9NXR1 1-335, looked up)", "chain": "B4 chain with A118E, A129R", "modifications": "LD655 or LD555 dye where labelled", "notes": "Nde1, human; Labelled through a SNAP or a ybbR tag; also called full-length Nde1; WT Nde1; source: Sf9 (baculovirus, pOmniBac), purified (IgG Sepharose, TEV elution, Superdex 200 Increase SEC)"}, "B7": {"name": "Nde1^E118A/R129A (Lis1 binding mutant of Nde1) (natural protein, human, UniProt Q9NXR1 1-335, looked up)", "chain": "B4 chain", "modifications": "a fluorescent dye in the colocalization assays", "notes": "Nde1, human, with E118A and R129A; Probably in full-length Nde1; source: Sf9 (baculovirus, pOmniBac), purified (IgG Sepharose, TEV elution, SEC)"}, "B8": {"name": "Nde1^E47A (DIC binding mutant of Nde1) (natural protein, human, UniProt Q9NXR1 1-335, looked up)", "chain": "B4 chain with E47A, A118E, A129R", "modifications": "a fluorescent dye in the colocalization assays", "notes": "Nde1, human, with E47A; Probably in full-length Nde1; source: Sf9 (baculovirus, pOmniBac), purified (IgG Sepharose, TEV elution, SEC)"}, "B9": {"name": "Nde1^E118K/R129E (Lis1 binding mutant of Nde1) (natural protein, human, UniProt Q9NXR1 1-335, looked up)", "chain": "B4 chain with A118K, A129E", "modifications": "a fluorescent dye in the colocalization assays", "notes": "Nde1, human, with E118K and R129E; Probably in full-length Nde1; source: Sf9 (baculovirus, pOmniBac), purified (IgG Sepharose, TEV elution, SEC)"}, "B10": {"name": "Nde1^E47K (DIC binding mutant of Nde1) (natural protein, human, UniProt Q9NXR1 1-335, looked up)", "chain": "B4 chain with E47K, A118E, A129R", "modifications": "a fluorescent dye in the colocalization assays", "notes": "Nde1, human, with E47K; Probably in full-length Nde1; source: Sf9 (baculovirus, pOmniBac), purified (IgG Sepharose, TEV elution, SEC)"}},
  "key": {"[1]": {"target": "dynein mutant unable to attain the phi conformation (mtDyn) (human) (UniProt Q14204)", "test": "single-molecule colocalization (TIRF); dynein (Alexa488 and biotin on its SNAP tag, 0.2 nM) immobilised on streptavidin / biotin-PEG glass; labelled prey in MB buffer (30 mM HEPES pH 7.0, 5 mM MgSO4, 1 mM EGTA, casein, pluronic, DTT, Taxol), 10 min, unbound prey not washed away; third proteins added"}, "[2]": {"target": "wild-type human dynein (cytoplasmic dynein-1 complex) (human) (UniProt Q14204)", "test": "single-molecule colocalization (TIRF); dynein (Alexa488 and biotin on its SNAP tag, 0.2 nM) immobilised on streptavidin / biotin-PEG glass; labelled prey in MB buffer (30 mM HEPES pH 7.0, 5 mM MgSO4, 1 mM EGTA, casein, pluronic, DTT, Taxol), 10 min, unbound prey not washed away; third proteins added"}, "[3]": {"target": "WT dynein-GFP (human) (UniProt Q14204)", "test": "real-time TIRF of the initiation of DDR motility; microtubules decorated with WT dynein-GFP and Nde1-LD655 in the absence of Lis1; dynactin and BicDR1 (one of them LD555-labelled) flown in during imaging"}, "[4]": {"target": "the molecule itself", "test": "mass photometry; proteins diluted to 5–20 nM in 30 mM HEPES pH 7.4, 5 mM MgSO4, 1 mM EGTA, 10% glycerol; Refeyn TwoMP; profiles fitted to multiple Gaussians"}, "[5]": {"target": "dynein-dynactin-BicDR1 complex assembled with wild-type human dynein (wtDDR) (human | pig | mouse) (UniProt Q14204)", "sequence (Q14204 whole entry, looked up, one chain of several)": "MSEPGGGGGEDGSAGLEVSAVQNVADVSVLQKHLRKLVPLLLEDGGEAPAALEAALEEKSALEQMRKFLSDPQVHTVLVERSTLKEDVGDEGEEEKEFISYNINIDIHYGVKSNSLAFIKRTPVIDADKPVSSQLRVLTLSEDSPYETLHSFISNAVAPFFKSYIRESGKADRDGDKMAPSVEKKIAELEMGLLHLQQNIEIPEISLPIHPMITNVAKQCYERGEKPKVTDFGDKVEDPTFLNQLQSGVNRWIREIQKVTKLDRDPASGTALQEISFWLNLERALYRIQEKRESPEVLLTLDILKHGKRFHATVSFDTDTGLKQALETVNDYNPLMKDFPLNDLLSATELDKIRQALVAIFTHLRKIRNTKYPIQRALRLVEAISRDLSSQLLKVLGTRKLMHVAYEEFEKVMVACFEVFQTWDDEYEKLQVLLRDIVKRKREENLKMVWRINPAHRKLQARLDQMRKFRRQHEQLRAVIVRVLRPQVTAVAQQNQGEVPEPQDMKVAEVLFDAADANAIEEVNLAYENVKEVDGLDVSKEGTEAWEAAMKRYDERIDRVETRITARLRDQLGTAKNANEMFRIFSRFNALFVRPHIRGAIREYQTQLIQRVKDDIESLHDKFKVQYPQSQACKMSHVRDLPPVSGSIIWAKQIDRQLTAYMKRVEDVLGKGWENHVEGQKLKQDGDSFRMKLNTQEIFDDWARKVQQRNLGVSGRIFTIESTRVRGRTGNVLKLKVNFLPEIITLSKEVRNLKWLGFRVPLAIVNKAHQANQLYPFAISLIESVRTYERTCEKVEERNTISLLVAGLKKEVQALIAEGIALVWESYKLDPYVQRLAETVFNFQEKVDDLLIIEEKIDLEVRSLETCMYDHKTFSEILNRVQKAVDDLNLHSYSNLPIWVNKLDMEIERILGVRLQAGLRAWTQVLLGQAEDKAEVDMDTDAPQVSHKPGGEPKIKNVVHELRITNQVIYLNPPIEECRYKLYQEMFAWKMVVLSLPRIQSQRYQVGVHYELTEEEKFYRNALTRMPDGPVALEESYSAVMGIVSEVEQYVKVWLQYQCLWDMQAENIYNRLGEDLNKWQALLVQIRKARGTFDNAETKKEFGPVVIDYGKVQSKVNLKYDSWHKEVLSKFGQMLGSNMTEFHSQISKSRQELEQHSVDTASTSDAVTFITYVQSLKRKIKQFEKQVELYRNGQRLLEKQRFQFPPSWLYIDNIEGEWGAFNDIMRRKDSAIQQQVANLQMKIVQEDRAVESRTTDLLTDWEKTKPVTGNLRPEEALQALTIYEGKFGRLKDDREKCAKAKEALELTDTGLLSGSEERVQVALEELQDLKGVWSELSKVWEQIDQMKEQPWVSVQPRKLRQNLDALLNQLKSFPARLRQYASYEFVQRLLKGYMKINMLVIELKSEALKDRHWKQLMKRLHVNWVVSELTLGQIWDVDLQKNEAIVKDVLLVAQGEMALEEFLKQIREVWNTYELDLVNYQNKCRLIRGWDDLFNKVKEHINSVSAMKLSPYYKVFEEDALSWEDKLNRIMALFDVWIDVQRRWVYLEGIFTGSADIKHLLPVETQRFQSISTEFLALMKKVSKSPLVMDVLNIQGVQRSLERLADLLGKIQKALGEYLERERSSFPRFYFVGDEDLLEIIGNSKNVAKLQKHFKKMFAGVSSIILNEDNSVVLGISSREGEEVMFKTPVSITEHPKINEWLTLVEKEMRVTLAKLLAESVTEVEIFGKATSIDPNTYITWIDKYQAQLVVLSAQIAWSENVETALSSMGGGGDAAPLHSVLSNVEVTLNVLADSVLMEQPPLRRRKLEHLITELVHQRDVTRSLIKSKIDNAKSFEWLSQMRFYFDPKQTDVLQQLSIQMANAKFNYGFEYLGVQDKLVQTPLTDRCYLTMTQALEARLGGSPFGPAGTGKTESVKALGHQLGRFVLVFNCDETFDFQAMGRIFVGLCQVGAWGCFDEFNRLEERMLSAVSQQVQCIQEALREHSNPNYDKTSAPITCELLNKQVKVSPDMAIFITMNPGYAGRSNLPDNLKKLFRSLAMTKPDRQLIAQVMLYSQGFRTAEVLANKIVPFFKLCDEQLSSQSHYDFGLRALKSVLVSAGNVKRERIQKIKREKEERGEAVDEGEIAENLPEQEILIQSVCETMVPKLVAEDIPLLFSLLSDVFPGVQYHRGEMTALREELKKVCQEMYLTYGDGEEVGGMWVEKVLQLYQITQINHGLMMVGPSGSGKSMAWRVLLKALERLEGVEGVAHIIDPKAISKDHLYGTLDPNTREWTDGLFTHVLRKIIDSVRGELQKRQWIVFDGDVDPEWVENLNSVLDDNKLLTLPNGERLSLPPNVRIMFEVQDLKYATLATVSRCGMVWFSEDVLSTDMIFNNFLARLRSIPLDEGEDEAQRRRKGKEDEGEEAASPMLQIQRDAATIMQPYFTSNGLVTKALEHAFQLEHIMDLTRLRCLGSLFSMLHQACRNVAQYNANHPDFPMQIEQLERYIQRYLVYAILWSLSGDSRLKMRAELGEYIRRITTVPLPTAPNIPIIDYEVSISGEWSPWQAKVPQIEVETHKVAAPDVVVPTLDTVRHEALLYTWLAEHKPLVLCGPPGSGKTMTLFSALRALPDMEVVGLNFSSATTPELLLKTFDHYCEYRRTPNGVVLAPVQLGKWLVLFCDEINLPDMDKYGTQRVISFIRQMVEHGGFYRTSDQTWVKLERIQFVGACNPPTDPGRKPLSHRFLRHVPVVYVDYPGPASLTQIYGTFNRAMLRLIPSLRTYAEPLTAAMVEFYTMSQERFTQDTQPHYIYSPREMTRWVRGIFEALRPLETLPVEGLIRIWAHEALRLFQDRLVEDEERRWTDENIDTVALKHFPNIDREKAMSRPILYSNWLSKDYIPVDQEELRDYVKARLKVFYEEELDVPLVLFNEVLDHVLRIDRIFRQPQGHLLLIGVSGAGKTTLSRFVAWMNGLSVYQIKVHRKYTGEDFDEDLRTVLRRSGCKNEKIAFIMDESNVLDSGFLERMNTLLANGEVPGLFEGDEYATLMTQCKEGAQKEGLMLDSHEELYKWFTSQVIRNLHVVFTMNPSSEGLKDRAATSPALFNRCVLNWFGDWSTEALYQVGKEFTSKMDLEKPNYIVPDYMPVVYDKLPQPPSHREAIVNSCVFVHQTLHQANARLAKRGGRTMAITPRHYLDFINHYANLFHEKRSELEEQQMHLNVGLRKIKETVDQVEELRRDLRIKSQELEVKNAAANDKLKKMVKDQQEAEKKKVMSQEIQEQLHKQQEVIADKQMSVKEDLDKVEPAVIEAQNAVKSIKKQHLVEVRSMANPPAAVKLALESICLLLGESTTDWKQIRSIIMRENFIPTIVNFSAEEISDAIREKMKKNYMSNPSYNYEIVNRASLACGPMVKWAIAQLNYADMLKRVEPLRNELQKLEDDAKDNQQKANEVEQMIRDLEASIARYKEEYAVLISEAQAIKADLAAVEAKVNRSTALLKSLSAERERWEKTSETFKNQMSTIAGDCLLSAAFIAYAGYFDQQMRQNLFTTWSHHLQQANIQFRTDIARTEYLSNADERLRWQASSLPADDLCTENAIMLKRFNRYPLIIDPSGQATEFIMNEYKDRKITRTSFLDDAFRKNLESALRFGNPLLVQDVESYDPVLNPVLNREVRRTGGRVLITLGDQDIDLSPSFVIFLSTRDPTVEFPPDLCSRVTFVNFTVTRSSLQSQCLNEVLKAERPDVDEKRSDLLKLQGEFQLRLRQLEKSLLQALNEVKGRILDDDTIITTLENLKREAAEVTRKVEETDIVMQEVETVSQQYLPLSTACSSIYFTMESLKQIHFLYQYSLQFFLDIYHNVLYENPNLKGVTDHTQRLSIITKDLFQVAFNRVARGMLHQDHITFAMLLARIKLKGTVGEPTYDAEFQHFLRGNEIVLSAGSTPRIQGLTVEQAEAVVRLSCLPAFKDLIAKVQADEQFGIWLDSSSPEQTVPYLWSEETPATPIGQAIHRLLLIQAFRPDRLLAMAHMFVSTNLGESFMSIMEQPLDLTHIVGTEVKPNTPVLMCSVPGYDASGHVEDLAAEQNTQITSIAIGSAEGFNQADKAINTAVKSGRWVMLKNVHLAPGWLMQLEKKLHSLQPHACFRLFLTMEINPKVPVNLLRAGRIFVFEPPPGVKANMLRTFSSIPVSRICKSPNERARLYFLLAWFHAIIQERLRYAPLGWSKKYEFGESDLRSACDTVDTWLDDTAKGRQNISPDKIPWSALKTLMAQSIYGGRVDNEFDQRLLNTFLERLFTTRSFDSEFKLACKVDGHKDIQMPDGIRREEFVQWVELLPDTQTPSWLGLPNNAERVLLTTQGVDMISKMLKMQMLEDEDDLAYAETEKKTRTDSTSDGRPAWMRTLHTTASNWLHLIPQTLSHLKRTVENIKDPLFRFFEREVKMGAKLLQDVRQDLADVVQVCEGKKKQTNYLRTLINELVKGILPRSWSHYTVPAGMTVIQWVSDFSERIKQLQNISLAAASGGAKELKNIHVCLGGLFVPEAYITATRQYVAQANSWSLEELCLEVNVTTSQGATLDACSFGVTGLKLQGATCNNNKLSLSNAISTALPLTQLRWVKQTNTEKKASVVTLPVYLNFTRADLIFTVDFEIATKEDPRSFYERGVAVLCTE", "test": "three-color TIRF comigration on microtubules; 100 nM BicDR1-mNG, 10 nM LD555-Lis1 and 10 nM LD655-Nde1 preincubated with the DDR components; processive runs on surface-immobilised microtubules"}, "[6]": {"target": "wild-type human dynein (cytoplasmic dynein-1 complex) (human) (UniProt Q14204)", "test": "single-molecule colocalization (TIRF); dynein (Alexa488 and biotin on its SNAP tag, 0.2 nM) immobilised on streptavidin / biotin-PEG glass; labelled prey in MB buffer (30 mM HEPES pH 7.0, 5 mM MgSO4, 1 mM EGTA, casein, pluronic, DTT, Taxol), 10 min, unbound prey not washed away; third proteins added", "remark": "listed apart in the source"}, "[7]": {"target": "dynein mutant unable to attain the phi conformation (mtDyn) (human), Q14204"}, "[8]": {"target": "T1, Lis1^39–410 (human, UniProt P43034 39-410)", "T1 sequence (looked up)": "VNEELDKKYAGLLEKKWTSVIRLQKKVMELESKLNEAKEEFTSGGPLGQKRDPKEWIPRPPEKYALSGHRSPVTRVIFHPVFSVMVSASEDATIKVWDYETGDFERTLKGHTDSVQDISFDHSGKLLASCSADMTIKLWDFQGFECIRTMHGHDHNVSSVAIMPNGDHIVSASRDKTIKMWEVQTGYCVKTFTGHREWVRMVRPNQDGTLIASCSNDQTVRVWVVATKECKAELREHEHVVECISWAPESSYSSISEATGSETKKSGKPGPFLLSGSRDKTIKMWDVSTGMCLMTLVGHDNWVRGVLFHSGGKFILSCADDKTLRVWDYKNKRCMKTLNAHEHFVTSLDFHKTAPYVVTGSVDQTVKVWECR", "test": "cell-based or functional assay"}, "[9]": {"target": "B2", "test": "cell-based or functional assay"}, "[10]": {"target": "dynein mutant unable to attain the phi conformation (mtDyn) (human) (UniProt Q14204)"}},
  "note": "Residue numbers refer to the chain shown, from its start. Names and notes keep the numbering of the source.",
  "data": [
    {"molecule": "pig brain dynactin (from UniProt A0A287B8J2 1-1281) (complex)", "values": [
      {"measurement": "percent reduction of Nde1 colocalization to dynein (150 nM dynactin, 25 nM Nde1)", "setting": "[1]", "result": 75, "unit": "%"},
      {"measurement": "percent reduction of Nde1 colocalization to dynein (150 nM dynactin, 25 nM Nde1)", "setting": "[2]", "result": 37, "unit": "%"},
      {"measurement": "percent of dynein-colocalized Nde1 spots released", "setting": "[3]", "result": 96, "unit": "%"}
    ]},
    {"molecule": "B1", "values": [
      {"measurement": "stoichiometry N", "setting": "[4]", "result": 2}
    ]},
    {"molecule": "B2", "values": [
      {"measurement": "percent of DDR complexes that co-migrate with Lis1", "setting": "[5]", "result": 70, "unit": "%"},
      {"measurement": "average bound time", "setting": "[6]", "result": 12, "unit": "s"},
      {"measurement": "average bound time with Nde1 added", "setting": "[6]", "result": 35, "unit": "s"},
      {"measurement": "stoichiometry N", "setting": "[4]", "result": 2}
    ]},
    {"molecule": "B3", "values": [
      {"measurement": "stoichiometry N", "setting": "[4]", "result": 2}
    ]},
    {"molecule": "B4", "values": [
      {"measurement": "decrease of the frequency of mtDDR runs with 250 nM Nde1 mutant in the absence of Lis1", "setting": "[7]", "result": 50, "unit": "%"}
    ]},
    {"molecule": "B5", "values": [
      {"measurement": "decrease of the frequency of mtDDR runs with 250 nM Nde1 mutant in the absence of Lis1", "setting": "[7]", "result": 50, "unit": "%"}
    ]},
    {"molecule": "B6", "values": [
      {"measurement": "wtDDR run frequency on addition of 10 nM Nde1 with 100 nM Lis1^39–410", "setting": "[8]", "result": 3.2, "unit": "fold"},
      {"measurement": "wtDDR run frequency on addition of 10 nM Nde1 with full-length Lis1", "setting": "[9]", "result": "> 10", "unit": "fold"},
      {"measurement": "average bound time", "setting": "[6]", "result": 21, "unit": "s"},
      {"measurement": "average bound time with Lis1 added", "setting": "[6]", "result": 42, "unit": "s"},
      {"measurement": "decrease of the frequency of mtDDR runs with 250 nM Nde1 in the absence of Lis1", "setting": "[10]", "result": 50, "unit": "%"},
      {"measurement": "stoichiometry N", "setting": "[4]", "result": 2}
    ]},
    {"molecule": "B7", "values": [
      {"measurement": "stoichiometry N", "setting": "[4]", "result": 2}
    ]},
    {"molecule": "B8", "values": [
      {"measurement": "stoichiometry N", "setting": "[4]", "result": 2}
    ]},
    {"molecule": "B9", "values": [
      {"measurement": "stoichiometry N", "setting": "[4]", "result": 2}
    ]},
    {"molecule": "B10", "values": [
      {"measurement": "stoichiometry N", "setting": "[4]", "result": 2}
    ]}
  ]
}
